Measured values taken from patent US20140017790A1, “CONTROL AGENT FOR CONTROLLING UNDIFFERENTIATED STATE AND USE THEREOF” (RIKEN, priority 2011, published 2014).

How the values were obtained:
[1] = tested on: mouse iPS cells; assay: flow cytometry analysis of Nanog-GFP positive cell population; type: cell-based
Procedure: In the present example, the above-described DMEM to which the LIF and mouse recombinant CCL2 (MCP-1, #479-JE-010, R&D Systems) had been added was used. In the medium, the final concentration of the LIF was set to 25 units/ml, and the concentration of the recombinant CCL2 was set to 500 ng/ml. The amount of the medium to be added to a 12-well dish was set to 1 ml per well. On the other hand, in a comparative example, the above-described DMEM containing the LIF but not containing the CCL2 was used. The final concentration of the LIF was set to 25 units/ml.
The mouse iPS cells cultured under feeder free conditions were cultured in the medium of the example and the medium of the comparative example, respectively. The mouse iPS cells were seeded in the 12-well dish at a density of 6×10^4 cells/well.
The flow cytometry analysis was carried out in the following manner. After the mouse iPS cells had been cultured in the above described manner, the cells were collected from the wells, and were suspended again in an ES medium containing 25 units/ml of LIF. As the ES medium, a DMEM (containing glucose at a high concentration and containing no sodium pyruvate) containing 15% FBS, 0.1 mmol/l NEAA, and 0.1 mmol/l 2-Mercaptoethanol was used. Then, this cell suspension was applied to a flow cytometer (trade name: BD FACSAria (registered trademark) II, Becton, Dickinson and Company), and analyzed in accordance with the protocol of the flow cytometer. At this time, as a cell population having pluripotency, i.e., undifferentiated cell population, a Nanog-GFP-positive region sorted out based on FITC-A>10^4 was monitored. The raw data was analyzed by a program (FlowJo, ver. 7), and plotted in the form of density plot. The iPS cells were produced from MEF of a modified mouse with a GFP protein being incorporated in the promoter region of the Nanog gene. Thus, when the cells expressed the Nanog gene, it means the cells were Nanog-GFP positive, so that the GFP was produced and this GFP was detected by the FACS. […]

[2] = tested on: mouse iPS cells; assay: quantitative RT-PCR of undifferentiated marker genes, CCL2 overexpressed in mouse iPS cells; type: cell-based; settings: CCL2 overexpressed (Ccl2 expression vector), feeder free, 24 hours
Procedure: A PrimeScript RT-PCR Kit (trade name, TAKARA BIO INC.), an ABI 7500 Fast real time PCR system (trade name, Applied BioSystems), and a SYBR (registered trademark) Premix Ex Taq (trade name, TAKARA BIO INC.) were used in accordance with their protocols. PCR was carried out by conducting 40 cycles of treatment with a treatment at 94° C. for 5 second and at 62.5° C. for 20 seconds as 1 cycle. The expression level of each gene was calculated by normalizing the relative amount of mRNA in the gene to Gapdh mRNA according to the 2^−ΔΔ^CT method (Thomse R, Solvsten C A, Linnet T E, et al., Analysis of qPCR data by converting exponentially related Ct values into linearly related XO values. J Bioinform Comput Biol 2010: 8: 885-900.).
In the following manner, CCL2 was overexpressed in the mouse iPS cells, and the expression levels of undifferentiated marker genes were examined. The undifferentiated marker genes were the Ecat1 gene, Cripto gene, Oct3/4 gene, Zfp42 gene, Esg1 gene, Eras gene, Fgf4 gene, Dax1 gene, Nanog gene, Sox2 gene, Klf4 gene, cMyc gene, Tbx3 gene, and Eed gene.
A Ccl2 expression vector that overexpresses CCL2 was constructed. The CCL2 to be expressed was a mouse-derived protein having a full-length amino acid sequence of SEQ ID NO: 3. First, using a Gateway Technology (Invitrogen), a full-length cDNA (SEQ ID NO: 6) coding for the CCL2 was cloned into a pENTER/D-TOPO vector. The cloned sequence was confirmed, and thereafter, the full-length cDNA was inserted into an EF-α1 promoter-containing pEF-DEST51 vector (Invitrogen) using a Gateway LR Clonase II Enzyme Mix (Invitrogen), thus constructing the Ccl2 expression vector. The Ccl2 expression vector was purified using an Endotoxin free Plasmid maxi prep kit (Qiagen) in accordance with its protocol.
Next, the mouse iPS cells cultured under the feeder free conditions were seeded in a 12-well dish at a density of 3×10^5 cells/well. The amount of a medium to be added to the dish was set to 1 ml/well. Then, using 16 μl of a Lipofectamine 2000 (Invitrogen) and 4.8 μg of the Ccl2 expression vector per well, the mouse iPS cells were transfected with the Ccl2 expression vector. These mouse iPS cells were cultured for another 24 hours under feeder free conditions. Thereafter, total RNAs were extracted, and the expression levels of the undifferentiated marker genes were examined. The expressions of the undifferentiated marker genes were examined by the quantitative RT-PCR using the above-described primers. […] Then, the fold changes in expression level relative to the negative control were calculated.

B1: CCL2: mouse recombinant CCL2 (MCP-1, #479-JE-010, R&D Systems); in Examples 1, 3, 4(1), 5 mouse CCL2 (SEQ ID NO: 3) overexpressed from Ccl2 expression vector (protein, listed as Mus musculus)
chain: MQVPVMLLGLLFTVAGWSIHVLAQPDAVNAPLTCCYSFTSKMIPMSRLESYKRITSSRCPKEAVVFVTKLKREVCADPKKEWVQTYIKNLDRNQMRSEPTTLFKTASALRSSAPLNVKLTRKSEANASTTFSTTTSSTSVGVTSVTVN
proportion of the Nanog-GFP positive mouse iPS cells ([1]; CCL2 500 ng/ml, LIF 25, 50, 100, 500 and 1000 units/ml, versus no CCL2): increased | proportion of the Nanog-GFP positive mouse iPS cells ([1]; recombinant CCL2 500 ng/ml + LIF 25 units/ml, feeder free, 24 hours, comparative medium (LIF only) 37.6%): 67.3% | number of undifferentiated cells having pluripotency (Nanog-GFP positive) ([1]; recombinant CCL2 500 ng/ml added to PI3K inhibitor 5 ng/ml + LIF 25 units/ml): further increase | expression of the Klf4 gene, fold change relative to negative control [2]: increased markedly | expression of the Nanog gene, fold change relative to negative control [2]: increased markedly | expression of the Sox2 gene, fold change relative to negative control [2]: increased markedly | expression of the Tbx3 gene, fold change relative to negative control [2]: increased markedly
